Positions count from the first letter of the chain named.
B1: A-1 (antibody, V domains shown)
VH: EVQLVESGGGVVQPGGSLRLSCAASGFAFSTYWMHWVRQAPGKGLVWVSRINGDGSGTNYADSVKGRFTISRDNAKSTLYLQMNSLRTEDTAVYYCTRTAGRGAYDFGRFDPWGQGTLVTVSS
VL: DIVLTQTPLSLPVTPGEPASISCRSSQSLLHSNGYNYLDWYLQKAGQSPQLLVFLGSNRASGVPDRFSGSASGTDFTLKISRVEAEDVGVYYCMQALQIPITFGQGTRLEIK
B2: A-11 (antibody, V domains shown)
VH: EVQLVESGAEVKKPGSSVMVSCKASGGTFSRYAISWVRQAPGQGLEWMGGIIPVFGIVHYAQKFQGRVTITADKSTSTAYMELSSLRSEDTAAYYCARDRQQQPSPYYYHGMDVWGQGTTVTVSS
VL: DIRLTQSPSSLSASVGDRVTITCQASQDISNYLNWYQQKPGKAPKLLIYDASNLETGVPTRFSGSGSGTDFTFTISSLQPEDIATYYCQQYDNLPLFGGGTKVEIK
B3: A-10 (antibody, V domains shown)
VH: QVQLVQSGGGVVQPGRSLRLSCAASGFTFSSYGMHWVRQAPGKGLEWVAVISYDGSNKYYTDSVKGRFTISRDNSKNTLYLQMNSLRAEDTAVYYCAKDLPREVYYDILTGYDNPYYYYGMDVWGQGTTVTVSS
VL: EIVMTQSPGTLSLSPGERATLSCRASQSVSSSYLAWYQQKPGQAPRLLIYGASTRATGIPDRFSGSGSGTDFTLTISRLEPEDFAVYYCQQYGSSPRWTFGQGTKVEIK
B4: A-2 (antibody, V domains shown)
VH: EVQLVESGGGLIQPGGSLRLSCAASGFTVSSNYMSWVRQAPGKGLEWVSIIYSGGSTYYADSVKGRFTISRDNSKNTLYLQMNSLRAEDTAVYYCARAPSGEYGDPIYYWGQGTLVTVSS
VL: QSVLTQPPSASASLGASVKLTCTLSSGHSTYTIAWHQQQPEKGPRYLMKLNSDGSHSKGDGIPDRFSGSSSGAERYLTISSLQSEDEADYYCQTWGTGNHWVFGGGTKLTVL
B5: A-19 (antibody, V domains shown)
VH: QVQLVQSGAEVKKPGESLKISCKGSGYSFTSYWIAWVRQMPGKGLEWMGIIYPGDSDTSYSPSFQGQVTISADKSISTAYLQWSSLKASDTAMYYCARGPNKYNWFDTWGQGTLVTVSS
VL: not shown
B6: A-13 (antibody, V domains shown)
VH: QVQLVQSGAEVKKPGASVKVSCKASGYTFTDYYMHWVRQAPGQGLEWMGWINPNSGGTNSAQKFQGRVTMTRDTSINTAYMELSRLRSDDTAVYFCARDSHLAMVRGDFEYWGQGTLVTVSS
VL: QSVLTQPASVSGSPGQSITISCTGTSSDVESYNVVSWYQQHPGKAPKLMIYEVSKRPSGVSHRFSGSKSGNTASLTISGLQAEDESDYYCCSYAGNSTWVFGGGTKLTVL
B7: A-22.1 (antibody, V domains shown)
VH: not shown
VL: EIVLTQSPGTLSLSPGERATLSCRASQTVRSDLAWYQQKPGQAPRLLIYGASTRATDISDRFSGSGSGTEFTLTISSLQSEDFAVYYCQQYYEWPPHSDSFGGGTKVEIK
B8: A-22.3 (antibody, V domains shown)
VH: not shown
VL: B7 VL with A51G
B9: A-22.2 (antibody, V domains shown)
VH: not shown
VL: B7 VL with R24S, A51G
B10: A-23 (antibody, V domains shown)
VH: EVQLVESGGGLVQPGRSLRLSCAASGFTFDDYAMHWVRQAPGKGLEWVSGISWNSGTIGYADSVKGRFIISRDNAKNSLYLQMNSLRGEDMALYYCGKDRKREDPSLGGMDVWGQGTTVTVSS
VL: SYVLTQPPSVSVAPGQTARITCGGNNIGSKSVHWYQQKPGQAPVLVVYDDTDRPSGIPERFSGSNSGNTATLTISRVEAGDEADYYCQVWDSSSDHYVFGTGTKVTVL
B11: A-23.1 (antibody, V domains shown)
VH: B10 VH with F29I, S55G
VL: B10 VL with G23L, S93E
B12: A-23.2 (antibody, V domains shown)
VH: B10 VH with I51T, G97V
VL: B10 VL with S92V, H96S
B13: A-21.2 (antibody, V domains shown)
VH: EVQLVESGGGLVQPGGSLRLSCAASGFTFSRYWMHWVRQAPGKGLVWVSRINSDGSSTTYADSVKGRFTISRDNAKNTLYLQMNSLRAEDTAVYYCARELYYYDSRGAEEGEGWFDPWGQGTLVTVSS
VL: QSVLTQPPSVSGAPGQRVTISCTGISSNIGAQYDVHWYQQLPGTAPKLLIYGNSNRPRGVPDRFSASKSGTSAPLAITGLQAEDEADYYCQSSDRSVSGSVFGTGTKVTVL
B14: A-21.3 (antibody, V domains shown)
VH: B13 VH with S30R, V46E, K65E, S105R
VL: B13 VL with Q32E, S92V, S96Y, V97L
B15: A-24.1 (antibody, V domains shown)
VH: EVQLVESGGGLVKPGRSLRLSCAASGFTFADYTMSWFRQAPGKGLEWVGFIRSEPYGGTTEYAASVKGRFTISRDDSKSIAYLQMNSLKTEDTAVYYCSRDPWYCSGGDCYAVTGSWFDPWGQGTLVTVSS
VL: DIQMTQSPSSLSASVGDRVTITCQASQDIKKYLNWYQQKPGKAPKLLIYDVSNLETGVPSRFSGSGSGTDFTFTISSLQPEDVAIYYCQQYDNLPQTFGQGTKVEIK
B16: A-24.2 (antibody, V domains shown)
VH: B15 VH
VL: B15 VL with K31Q, V51Q, D92W
B17: A-24.3 (antibody, V domains shown)
VH: B15 VH
VL: B15 VL with Q27R, N93Q, K107E
B18: A-24 (antibody, V domains shown)
VH: B15 VH with T33A, E54K
VL: B15 VL

molecular target: T1, SARS-CoV-2 wild type spike protein (on reporter virus particles) (SARS-CoV-2, UniProt P0DTC2 14-1273); assay: cell-based or functional assay

Point of comparison: B3, “PsV Neut Assay IC50” value 1290 pM. Against it:
- B1 — 11-fold lower, 116 pM
- B2 — 2.1-fold lower, 613 pM
- B4 — 7.6-fold lower, 169 pM
- B5 — 26-fold higher, 34100 pM
- B6 — 8.3-fold lower, 155 pM

molecular target: T1, SARS-CoV-2 wild type spike protein (on …); assay: cell-based or functional assay; remark: another data set of the same source

Point of comparison: B15, “WT PsV IC50” value 65.7 pM. Against it:
- B7 — 220-fold higher, 14300 pM
- B8 — 110-fold higher, 7100 pM
- B9 — 50-fold higher, 3300 pM
- B10 — 8.2-fold higher, 539 pM
- B11 — 6.4-fold higher, 423 pM
- B12 — 6.3-fold higher, 416 pM
- B13 — 40-fold higher, 2630 pM
- B14 — 14-fold higher, 946 pM
- B16 — 1.8-fold higher, 116 pM
- B17 — within 1.5-fold, 45.4 pM
- B18 — 1.7-fold lower, 39 pM

molecular target: T1, SARS-CoV-2 wild type spike protein (on …); assay: cell-based or functional assay; remark: another data set of the same source

Point of comparison: B3, “PSV IC50” value 0.194 µg/mL. Against it:
- B1 — 11-fold lower, 0.017 µg/mL
- B2 — 2.1-fold lower, 0.092 µg/mL
- B4 — 7.8-fold lower, 0.025 µg/mL
- B5 — 26-fold higher, 5.12 µg/mL
- B6 — 8.4-fold lower, 0.023 µg/mL

molecular target: SARS-CoV-2 S Trimer (SARS-CoV-2, UniProt P0DTC2 16-1213); assay: Octet BLI, IgG, avid

Point of comparison: B3, Kd 854 pM. Against it:
- B1 — within 1.5-fold, 865 pM
- B2 — 1.5-fold higher, 1290 pM
- B4 — within 1.5-fold, 1140 pM
- B5 — within 1.5-fold, 987 pM
- B6 — within 1.5-fold, 843 pM

molecular target: T2, MERS-CoV [change] (MERS-CoV, UniProt K9N5Q8 18-725); assay: Octet BLI, IgG, monovalent
T2 sequence: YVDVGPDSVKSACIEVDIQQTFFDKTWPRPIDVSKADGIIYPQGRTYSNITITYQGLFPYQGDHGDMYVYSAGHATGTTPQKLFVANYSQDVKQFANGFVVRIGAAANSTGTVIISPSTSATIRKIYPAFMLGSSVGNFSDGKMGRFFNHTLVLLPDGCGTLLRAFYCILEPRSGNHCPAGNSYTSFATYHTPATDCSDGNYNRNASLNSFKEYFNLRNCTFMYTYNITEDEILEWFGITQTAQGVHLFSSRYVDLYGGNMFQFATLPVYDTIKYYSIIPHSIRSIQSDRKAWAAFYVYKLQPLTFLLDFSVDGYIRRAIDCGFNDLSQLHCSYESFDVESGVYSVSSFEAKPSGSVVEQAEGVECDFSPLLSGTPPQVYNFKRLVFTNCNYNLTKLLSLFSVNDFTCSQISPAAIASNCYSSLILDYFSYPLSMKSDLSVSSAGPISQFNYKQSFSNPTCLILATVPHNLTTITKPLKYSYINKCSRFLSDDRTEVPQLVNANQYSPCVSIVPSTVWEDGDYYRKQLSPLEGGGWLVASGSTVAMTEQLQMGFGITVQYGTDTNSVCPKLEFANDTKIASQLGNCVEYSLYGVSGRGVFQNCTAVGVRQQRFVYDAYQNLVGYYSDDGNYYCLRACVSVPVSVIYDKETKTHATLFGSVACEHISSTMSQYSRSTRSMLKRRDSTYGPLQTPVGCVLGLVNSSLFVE

B1: no binding.
B2: no binding.
B3: no binding.
B4: no binding.
B5: no binding.
B6: no binding.

molecular target: T3, SARS-CoV1 Spike [change] (SARS-CoV-1, UniProt P59594 14-667); assay: Octet BLI, IgG, monovalent

B1: no binding.
B2: no binding.
B3: no binding.
B4: no binding.
B5: no binding.
B6: no binding.

molecular target: T4, SARS-CoV-2 Spike S1-His (SARS-CoV-2, UniProt P0DTC2 16-685); assay: Octet BLI, IgG, monovalent

Point of comparison: B6, Kd 4910 pM. Against it:
- B1 — 2-fold higher, 9600 pM
- B2 — within 1.5-fold, 6920 pM
- B3 — 2-fold higher, 9590 pM
- B4 — 3-fold higher, 14500 pM
- B5 — 4.3-fold lower, 1150 pM

molecular target: T3, SARS-CoV1 Spike [change]; assay: Octet BLI, IgG, monovalent; remark: another data set of the same source

Point of comparison: B9, Kd 10100 pM. Against it:
- B7 — 2.7-fold lower, 3680 pM
- B8 — 2.1-fold lower, 4770 pM
- B13 — within 1.5-fold, 7930 pM
- B14 — 11-fold lower, 893 pM

B10: no binding.
B11: no binding.
B12: no binding.
B15: no binding.
B16: no binding.
B17: no binding.
B18: no binding.

molecular target: T4, SARS-CoV-2 Spike S1-His; assay: Octet BLI, IgG, monovalent; remark: another data set of the same source

Point of comparison: B16, Kd 289 pM. Against it:
- B7 — within 1.5-fold, 278 pM
- B8 — within 1.5-fold, 245 pM
- B9 — within 1.5-fold, 254 pM
- B10 — 7.3-fold higher, 2110 pM
- B11 — 2.9-fold higher, 829 pM
- B12 — 1.6-fold higher, 454 pM
- B13 — within 1.5-fold, 195 pM
- B14 — within 1.5-fold, 241 pM
- B15 — 3.5-fold higher, 999 pM
- B17 — 1.7-fold higher, 479 pM
- B18 — 19-fold higher, 5360 pM

— patent US20260217797A1 (Takeda / Millennium, published 2026)
